Experimental findings from article PMC9026278 are described below.

What all share (assay): SPR
(In SPR one partner is held on a chip, and binding of the other changes the refractive index at the surface.)

For assay [1], the target named is CH2-4.20 N300A aglycosylated anti-mesothelin human IgG1 antibody (human).
The target in assay [2] is CH2-4.15 N297A aglycosylated anti-mesothelin human IgG1 antibody (human).
For assay [3], the target named is CH2-4.10 N299A aglycosylated anti-mesothelin human IgG1 antibody (human).
Assay [4] has as its target CH2-4.16 N298A aglycosylated anti-mesothelin human IgG1 antibody (human).
Assay [5] addresses CH2-4.16 N298A-tubulysin (MSLN, huG1).
Assay [6] deals with N297A aglycosylated anti-mesothelin human IgG1 antibody (human).
Assay [7] concerns the target CH2-4.19 N301A aglycosylated anti-mesothelin human IgG1 antibody (human).

By Kd is commonly meant the equilibrium constant for the complex coming apart. High values mean weaker binding, low ones tighter binding.

For the substance “hCD64 (from UniProt P12314 16-374) (receptor)”, the fold weaker binding than the corresponding glycosylated species in assay [1], in assay [2], in assay [3], in assay [4], in assay [6] and in assay [7] was 100 fold throughout. In assay [5], this substance registered an equilibrium dissociation constant (Kd) of 172 nM.
